Data: the supplement of paper PMC7125110
± gives the standard error. Variants at the floor of the assay were thinned out.

B1: glmS ribozyme (parent)
chain: AUAAAAGCGCCAGAACUACAGAAAUGUAGUUGACGAGGAGGAGGUUUAUCGAAUUUUCGGCGGAUGCCUCCAAA

Variants of: B1
Test: self-cleavage kobs at 2500 uM GlcN6P; higher = faster cleavage; RNA array
Details: with glucosamine-6-phosphate
In short: (§1)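 Barcoded glmS ribozyme variants on sequenced MiSeq chips were transcribed in situ by E. coli RNA polymerase and tracked through a hybridised Cy3 probe at 37 °C. Glucosamine-6-phosphate (40 μM to 10 mM) in HEPES/KCl/Mg(OAc)2 buffer was flowed in, and tiles were imaged over ~14 h. Signals were normalised to baseline and to non-cleaving reference variants; per-tile medians were fit to one- or two-exponential decays to give kobs. kcat and KM came from weighted Michaelis–Menten fits across concentrations.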

AUAAAAGCGCCAGAACUACAGAAAUGUAGUCGAGGAGGUGGGGGUUCAUCGAAUUUUCGGCGGAUGCCUACAAA [U31C C34G A39U A42G U47C C70A] and AUAAAAGCGCCAGAACUACAGAAAUGUAGUUUAAGAGGAGGACGUUUAUCGAAUUUUCGGCGGAUGCCUCGAAA [G32U C34A G43C C71G] cannot be ordered by “self-cleavage kobs at 2500 uM GlcN6P” value: less than 1e-05 s⁻¹ for the first, less than 1e-05 s⁻¹ for the second.

AUAAAAGCGCCAGAACUACAGAAAUGUAGGUGACGAGGAGGAGGUUUAUCGAAUUUUCGGCAGUUGCCUCUAAA [U30G G62A A64U C71U] and AUAAAAGCGCCAGAACUACAGAAAUGUAGUGGACGAGGAGUAGGUUUAUCGAAUUUUCGGCUGAUUCCUCCAAA [U31G G41U G62U G66U] cannot be ordered by “self-cleavage kobs at 2500 uM GlcN6P” value: less than 1e-05 s⁻¹ for the first, less than 1e-05 s⁻¹ for the second.

Compared with AUAAAAGCGCCAGAACUACAGAAAUGUAGUGUACGAGGAGGAGGAUUAUCGAAUUUUCGGCGGAUGCCUCUAAA [U31G G32U U45A C71U], AUAAAAGCGCCAGAACUACAGAAAUGUAGUUUACGAGGUGGAGGUUUAUCGAAUUUUCGUCGGAUGCCUCCAAA [G32U A39U G60U] is lower in “self-cleavage kobs at 2500 uM GlcN6P” value: 0.000679 ± 0.00029 s⁻¹ for the first, less than 1e-05 s⁻¹ for the second.

Going from AUAAAAGCGCCAGAACUACAGAAAUGUAGUGGACGAGGAGGAGGUUUAUCGAUUUUUCGGCGGAUGCCUACAAA [U31G A53U C70A] to AUAAAAGCGCCAGAACUACAGAAAUGUAGUUUACUAGGAGGAGGUUUAUCGAGUUUUAGGCGGAUGCCUCCAAA [G32U G35U A53G C58A], the “self-cleavage kobs at 2500 uM GlcN6P” value falls from 0.000207 ± 6.4e-05 s⁻¹ to less than 1e-05 s⁻¹.

Compared with AUAAAAGCGCCAGAACUACAGAAAUGUAGUGGACGAGGUGGAGGUUUAUCGAAUGUUCGGCGGAUGCCUCUAAA [U31G A39U U55G C71U], AUAAAAGCGCCAGAACUACAGAAAUGUAGGUGACGAGGAGGAGGUUUAUCGAAUCUUCGGCGGAAGCCUCUAAA [U30G U55C U65A C71U] is 52-fold lower in “self-cleavage kobs at 2500 uM GlcN6P” value: 0.0043 ± 0.00067 s⁻¹ for the first, 8.23e-05 ± 1.7e-05 s⁻¹ for the second.

AUAAAAGCGCCAGAACUACAGAAAUGUAGUUAACGAGGAGGAGGCUUAUCGAAUUUUCGGCGGAUGCCUCCAAA [G32A U45C] and AUAAAAGCGCCAGAACUACAGAAAUGUAGUGGACGAGGAGAAGGUUUAUCGAACUUUCGGCGGAUGCCUCCAAA [U31G G41A U54C] are within error of each other in “self-cleavage kobs at 2500 uM GlcN6P” value: 0.000112 ± 3.8e-05 s⁻¹ for the first, 6.89e-05 ± 2.6e-05 s⁻¹ for the second.

AUAAAAGCGCCAGAACUACAGAAAUGUAGUUCACAAGGAGGUGGUUUAUCGAAUUUUCGGCGGAUGCCUCCAAA [G32C G35A A42U] and AUAAAAGCGCCAGAACUACAGAAAUGUAGUGGACGAGUAGGUGGUUUAUCGAAUUUUCGGCGGAUGCCUCCAAA [U31G G38U A42U] cannot be ordered by “self-cleavage kobs at 2500 uM GlcN6P” value: less than 1e-05 s⁻¹ for the first, less than 1e-05 s⁻¹ for the second.

Compared with AUAAAAGCGCCAGAACUACAGAAAUGUAGUCGACGAGGGGGAGGUUUAGCGAAUUUUCGGCGGAUGCCUUCAAA [U31C A39G U49G C70U], AUAAAAGCGCCAGAACUACAGAAAUGUAGUUCCCGAGGAGGAGGUUCAUCGAAUUUUCGGCGGCUGCCUCCAAA [G32C A33C U47C A64C] is lower in “self-cleavage kobs at 2500 uM GlcN6P” value: 2.73e-05 ± 1.4e-05 s⁻¹ for the first, less than 1e-05 s⁻¹ for the second.

First: AUAAAAGCGCCAGAACUACAGAAAUGUAGUUAACGAGGAGGAGGUUUAUCGAAUUUUCGACGGACGCCUCCAAA [G32A G60A U65C]
Second: AUAAAAGCGCCAGAACUACAGAAAUGUAGUUUACGAGGAGGAGGUUUAUCGAAUUUUCGGCGCAUGCCUCGAAA [G32U G63C C71G]
The “self-cleavage kobs at 2500 uM GlcN6P” value of the first is lower: less than 1e-05 s⁻¹ for the first, 6.45e-05 ± 3.2e-05 s⁻¹ for the second.

AUAAAAGCGCCAGAACUACAGAAAUGUAGUUUACGAGGAUGAGGAUUAUCGAAUUUUCGGCGGAUGCCUCCAAA [G32U G40U U45A] and AUAAAAGCGCCAGAACUACAGAAAUGUAGUUUACGAGGCGGAGGUUUAUCGAAUUUUCGGCGGAUGCCUCCAAA [G32U A39C] are within error of each other in “self-cleavage kobs at 2500 uM GlcN6P” value: 4.53e-05 ± 1.3e-05 s⁻¹ for the first, 4.98e-05 ± 1.5e-05 s⁻¹ for the second.

AUAAAAGCGCCAGAACUACAGAAAUGUAGUGGACGAGGAUGAGGUUUAUCGAAUUUUCGACGGAUGCCUCCAAA [U31G G40U G60A] and AUAAAAGCGCCAGAACUACAGAAAUGUAGUAGACGAGGAGUAGGUUUAUCGAAUUUUCUGCGGAUGCCUCCAAA [U31A G41U G59U] cannot be ordered by “self-cleavage kobs at 2500 uM GlcN6P” value: less than 1e-05 s⁻¹ for the first, less than 1e-05 s⁻¹ for the second.

First: AUAAAAGCGCCAGAACUACAGAAAUGUAGUUAACGAGGAGGAGGUUUAUCGAAUUUUCGCCGGAUGCCUACAAA [G32A G60C C70A]
Second: AUAAAAGCGCCAGAACUACAGAAAUGUAGUAGACGAGGAGGAGGUCUAUCGAGUUUUCGGCGGAUGCCUACAAA [U31A U46C A53G C70A]
The “self-cleavage kobs at 2500 uM GlcN6P” value of the first is lower: less than 1e-05 s⁻¹ for the first, 4.56e-05 ± 1.7e-05 s⁻¹ for the second.

AUAAAAGCGCCAGAACUACAGAAAUGUAGUCGACGAGGAGGACGUUUAUCGAAUUUUCGGCGGAGGCCUCCAAA [U31C G43C U65G] and AUAAAAGCGCCAGAACUACAGAAAUGUAGUUAACGAGGCGGAGGUUUAUUGAAUUUUCGGCGGAUGCCUCCAAA [G32A A39C C50U] cannot be ordered by “self-cleavage kobs at 2500 uM GlcN6P” value: less than 1e-05 s⁻¹ for the first, less than 1e-05 s⁻¹ for the second.

AUAAAAGCGCCAGAACUACAGAAAUGUAGUGGACCAGGAGAAGGUUUAUCGAUUUUUCGGCGAAUGCCUCCAAA [U31G G35C G41A A53U G63A] and AUAAAAGCGCCAGAACUACAGAAAUGUAGUUUACGAGGAGGUGGUUUAUCGAAUUUUCGGCGGAUGCAUCCAAA [G32U A42U C68A] cannot be ordered by “self-cleavage kobs at 2500 uM GlcN6P” value: less than 1e-05 s⁻¹ for the first, less than 1e-05 s⁻¹ for the second.

First: AUAAAAGCGCCAGAACUACAGAAAUGUAGGUGACGAGGAGGAGGUUUAUCGAAUUUUCCGCGGAGGCCUCCAAA [U30G G59C U65G]
Second: AUAAAAGCGCCAGAACUACAGAAAUGUAGUGGACGAGGAGGAGGUUUAUCGAAUUUUCGGAGGAUGACUCCAAA [U31G C61A C67A]
The “self-cleavage kobs at 2500 uM GlcN6P” value of the first is lower: less than 1e-05 s⁻¹ for the first, 0.000101 ± 2.8e-05 s⁻¹ for the second.

AUAAAAGCGCCAGAACUACAGAAAUGUAGUUCACGACGAGGAGGUUUAUCGAAUCUUCGGCGGAGGCCUCCAAA [G32C G37C U55C U65G] and AUAAAAGCGCCAGAACUACAGAAAUGUAGUGGACGAGCAGGAUGUUACUCGAAUUUUCGGCGGAUGCCUCCAAA [U31G G38C G43U U47A A48C] cannot be ordered by “self-cleavage kobs at 2500 uM GlcN6P” value: less than 1e-05 s⁻¹ for the first, less than 1e-05 s⁻¹ for the second.

Compared with AUAAAAGCGCCAGAACUACAGAAAUGUAGUCGAGUAGGAGGAGGUUUAUCGAAUUUUCGGCGGAUGCGUCCAAA [U31C C34G G35U C68G], AUAAAAGCGCCAGAACUACAGAAAUGUAGUUUACGAGGAGUAGAUUUAUCGAAUUUUCGGCGGAUGCCUUCAAA [G32U G41U G44A C70U] is lower in “self-cleavage kobs at 2500 uM GlcN6P” value: 0.000147 ± 6.7e-05 s⁻¹ for the first, less than 1e-05 s⁻¹ for the second.

Variants of: B1
Test: self-cleavage kobs at 10000 uM GlcN6P; higher = faster cleavage; RNA array
Details: with glucosamine-6-phosphate
In short: as §1

First: AUAAAAGCGCCAGAACUACAGAAAUGUAGUUUAAGAGGAGGACGUUUAUCGAAUUUUCGGCGGAUGCCUCGAAA [G32U C34A G43C C71G]
Second: AUAAAAGCGCCAGAACUACAGAAAUGUAGUUAACGAGGAGGAGGCUUAUCGAAUUUUCGGCGGAUGCCUCCAAA [G32A U45C]
The “self-cleavage kobs at 10000 uM GlcN6P” value of the first is lower: less than 1e-05 s⁻¹ for the first, 9.73e-05 ± 2.3e-05 s⁻¹ for the second.

AUAAAAGCGCCAGAACUACAGAAAUGUAGUUUACGAGGCGGAGGUUUAUCGAAUUUUCGGCGGAUGCCUCCAAA [G32U A39C] and AUAAAAGCGCCAGAACUACAGAAAUGUAGUCGAGUAGGAGGAGGUUUAUCGAAUUUUCGGCGGAUGCGUCCAAA [U31C C34G G35U C68G] are within error of each other in “self-cleavage kobs at 10000 uM GlcN6P” value: 7.09e-05 ± 1.1e-05 s⁻¹ for the first, 0.000118 ± 4.1e-05 s⁻¹ for the second.
